Substitutions are numbered along the chain they refer to. Like-named read-outs stand apart in the source and are kept apart here.
B1: SRP1944-A07 (with trastuzumab LC) (antibody, IgG1, V domains shown)
VH: EVQLVESGGGLVQPGGSLRLSCAASGFNITGYYIHWVRQAPGKGLEWVGYISPNSGSTYYADSVKGRFTISADTSKNTAYLQMNSLRAEDTAVYYCARDSRRYVRPFDYWGQGTLVTVSS
VL: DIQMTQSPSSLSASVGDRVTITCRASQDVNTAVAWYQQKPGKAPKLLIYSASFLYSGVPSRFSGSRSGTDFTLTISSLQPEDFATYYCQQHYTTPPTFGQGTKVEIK
notes: Parent of SRP2194; His/FLAG-tagged IgG1, cell-free; also called Antibody 126
B2: SRP2194-A05 (antibody, IgG1, V domains shown)
VH: B1 VH with T30K, G31E, Y33H, S100H
VL: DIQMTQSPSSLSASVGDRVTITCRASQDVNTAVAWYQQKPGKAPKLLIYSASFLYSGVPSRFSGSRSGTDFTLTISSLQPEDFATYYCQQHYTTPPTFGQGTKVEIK
notes: His/FLAG-tagged IgG1, cell-free
B3: Conjugate 46 (D04-Y180/F241/F404/K42-LP3) (antibody, human IgG1, kappa)
heavy: MEVQLVESGGGLVQPGGSLRLSCAASGFNISDYDIHWVRQAPGKGLEWVGGIDPADGSTDYADSVKGRFTISADTSKNTAYLQMNSLRAEDTAVYYCARDYGVYDYWGQGTLVTVSSASTKGPSVFPLAPSSKSTSGGTAALGCLVKDYFPEPVTVSWNSGALTSGVHTFPAVLQSSGLSLSSVVTVPSSSLGTQTYICNVNHKPSNTKVDKKVEPKSCDKTHTCPPCPAPELLGGPSVLFPPKPKDTLMISRTPEVTCVVVDVSHEDPEVKFNWYVDGVEVHNAKTKPREEQYNSTYRVVSVLTVLHQDWLNGKEYKCKVSNKALPAPIEKTISKAKGQPREPQVYTLPPSREEMTKNQVSLTCLVKGFYPSDIAVEWESNGQPENNYKTTPPVLDSDGSFLYSKLTVDKSRWQQGNVFSCSVMHEALHNHYTQKSLSLSPGK
light: MDIQMTQSPSSLSASVGDRVTITCRASQDVNTAVAWYQQKPGAPKLLIYSASFLYSGVPSRFSGSRSGTDFTLTISSLQPEDFATYYCQQHYTTPPTFGQGTKVEIKRTVAAPSVFIFPPSDEQLKSGTASVVCLLNNFYPREAKVQWKVDNALQSGNSQESVTEQDSKDSTYSLSSTLTLSKADYEKHKVYACEVTHQGLSSPVTKSFNRGEC
modifications: pAMF at K42, linked to LP3; pAMF at Y180, F241 and F404 (EU), each linked to LP3
B4: Conjugate 47 (D04-Y180/F241/F404/K42-LP4) (antibody, human IgG1, kappa)
heavy: B3 heavy
light: B3 light
modifications: pAMF at K42, linked to LP4; pAMF at Y180, F241 and F404 (EU), each linked to LP4

Assays:
[1] = molecular target: T1, human ROR1 Frizzled domain (hROR1-Fz) (human, UniProt Q01973 165-305); assay: SPR Biacore, IgG on anti-Fc, ROR1-Fz analyte
T1 construct: Acro Biosystems, made in HEK293
Summary of the method: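 Test antibodies captured on an anti-Fc surface (CM5 chip), then analyte bound for 180 s with 600 s dissociation at 25° C in HBS-EP+ buffer at 50 μL/min. Human ROR1 ECD, Frizzled or Kringle domain used as analyte; regeneration with 10 mM glycine pH 2.0.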

human ROR1 (hROR1) [2] = molecular target: T2, human ROR1 (hROR1) (human, UniProt Q01973 30-937); assay: cell-based or functional assay
human ROR1 (hROR1) [3] = molecular target: T2, human ROR1 (hROR1); assay: flow cytometry, HCT116-hROR1 cells
[4] = molecular target: T3, receptor tyrosine kinase orphan receptor 1 (ROR1) on Ntera-2 cells (human, UniProt Q01973 30-937); assay: cell-based or functional assay
[5] = molecular target: T3, receptor tyrosine kinase orphan …; assay: cell-based or functional assay; remark: listed apart in the source
[6] = molecular target: T3, receptor tyrosine kinase orphan …; assay: cell-based or functional assay; remark: listed apart in the source

| Binder | Kd [1] [pM] | koff [1] [s⁻¹] | kon [1] [M⁻¹ s⁻¹] | Mino Nb-PBD, drug-conjugated 2° antibody Cell Killing EC50 (human ROR1 (hROR1) [2]) [pM] | Bmax (MFI) (human ROR1 (hROR1) [3]) | Kd (human ROR1 (hROR1) [3]) [pM] | Cell Killing on Ntera2 Cells, EC50, With 1 uM 2188-D04 [4] [pM] | Cell Killing on Ntera2 Cells, EC50, Without 2188-D04 [4] [pM] | cell killing EC50, NTERA-2 cells [5] [pM] | cell killing Span, NTERA-2 cells [5] [%] | cell killing EC50, NTERA-2 cells [6] [pM] |
| --- | --- | --- | --- | --- | --- | --- | --- | --- | --- | --- | --- |
| B1 | 24500 | 0.01 | 559000 | 10 | – | – | – | – | – | – | – |
| B2 | 1540 | 0.000317 | 206000 | 2 | 8810 | 310 | – | – | – | – | – |
| B3 | – | – | – | – | – | – | < 10000 | 38 | 42 | 51 | 45 |
| B4 | – | – | – | – | – | – | < 10000 | 8 | 5 | 96 | 7 |
